PMC7610366 (Nature chemical biology, 2020)

What was measured:
[1] = target: 6xHis-tagged RcsF (E. coli) (UniProt P69411); experiment: BLI
[2] = target: Untagged BamA (E. coli), P0A940; experiment: BLI; conditions: remark: other sources report otherwise
[3] = target: BamAB sub-complex (E. coli, UniProt P0A940;P77774, lipid moiety); experiment: native gel or EMSA
[4] = target: BamABCDE holocomplex (E. coli, UniProt P0A940;P77774;P0A903;P0AC02;P0A937, lipid moiety | lipid moiety | lipid moiety | lipid moiety); experiment: native gel or EMSA
Chain of BamABCDE holocomplex (P77774 20-392, chain 2 of 4): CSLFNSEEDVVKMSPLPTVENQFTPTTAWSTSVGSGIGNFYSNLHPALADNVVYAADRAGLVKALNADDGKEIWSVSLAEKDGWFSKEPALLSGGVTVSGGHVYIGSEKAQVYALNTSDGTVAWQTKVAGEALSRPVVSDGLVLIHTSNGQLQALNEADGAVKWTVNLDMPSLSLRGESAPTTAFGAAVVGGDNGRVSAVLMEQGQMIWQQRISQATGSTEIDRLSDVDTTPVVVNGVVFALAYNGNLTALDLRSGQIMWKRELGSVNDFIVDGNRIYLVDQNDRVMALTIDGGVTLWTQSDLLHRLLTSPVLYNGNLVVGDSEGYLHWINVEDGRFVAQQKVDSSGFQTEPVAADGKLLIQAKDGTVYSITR
Chain of BamABCDE holocomplex (P0A903 25-344, chain 3 of 4): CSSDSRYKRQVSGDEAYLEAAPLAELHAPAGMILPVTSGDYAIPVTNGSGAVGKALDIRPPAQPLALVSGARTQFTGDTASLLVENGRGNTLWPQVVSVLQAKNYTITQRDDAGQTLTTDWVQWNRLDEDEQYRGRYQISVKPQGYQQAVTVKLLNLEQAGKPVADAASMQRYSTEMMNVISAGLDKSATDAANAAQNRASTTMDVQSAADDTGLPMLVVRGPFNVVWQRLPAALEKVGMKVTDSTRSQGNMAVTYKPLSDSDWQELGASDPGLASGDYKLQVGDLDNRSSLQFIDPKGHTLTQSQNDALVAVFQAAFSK
Chain of BamABCDE holocomplex (P0AC02 20-245, chain 4 of 4): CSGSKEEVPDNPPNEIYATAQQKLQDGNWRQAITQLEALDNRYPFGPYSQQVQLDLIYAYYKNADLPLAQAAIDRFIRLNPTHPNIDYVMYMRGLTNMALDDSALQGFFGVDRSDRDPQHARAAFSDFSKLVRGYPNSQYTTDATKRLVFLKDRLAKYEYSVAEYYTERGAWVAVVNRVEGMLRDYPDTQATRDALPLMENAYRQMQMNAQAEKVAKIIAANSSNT
Chain of BamABCDE holocomplex (P0A937 20-113, chain 5 of 4): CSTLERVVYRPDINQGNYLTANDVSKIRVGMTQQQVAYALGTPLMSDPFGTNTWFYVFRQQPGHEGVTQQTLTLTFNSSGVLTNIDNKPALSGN

Chain of BamAB sub-complex (P77774 20-392, one chain of several): as the sequence (P77774 20-392, chain 2 of 4) above

## Untagged BamA (from UniProt P0A940 21-810) (natural protein; other documents disagree on this pair)
[1]
  Kd: 0.42 µM

B1: 6xHis-tagged RcsF, P69411 16-134 (natural protein)
chain: CSMLSRSPVEPVQSTAPQPKAEPAKPKAPRATPVRIYTNAEELVGKPFRDLGEVSGDSCQASNQDSPPSIPTARKRMQINASKMKANAVLLHSCEVTSGTPGCYRQAVCIGSALNITAK
modifications: here or on the partner: biotin (EZ-Link NHS-PEG4-biotin) where immobilised on streptavidin tips
[2]
  Kd: 0.35 µM

B2: RcsF (natural protein)
chain: B1 chain
modifications: lipid anchor
[3]
  binding result: binds
[4]
  binding result: binds
